Assay: yeast display, Sf9 membrane polyspecificity reagent, FACS + sequencing; frameworks hold sequencing errors
How it was run: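 Nanobodies from a synthetic yeast display library (Saccharomyces cerevisiae BJ5465), induced 36–48 hours with galactose, were stained 1 hour at 4 °C with 10% biotinylated, detergent-solubilized Sf9 membrane reagent, enriched on streptavidin microbeads, then FACS-sorted. Anti-HA (expression) and streptavidin (reagent binding) fluorescence set low and high (top ~1%) gates. Polyreactivity labels come from the gate of origin. Genes were colony-PCR amplified, MiSeq 2 × 250 sequenced and filtered by CDR length.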

Sequence	polyreactivity (PSR sort gate)
QVQLVESGGGLVQAGGRLRLSCAASGFISKYYAMGWSRQAQGKERELVASISRDGSTSYADSVKGRFTISRDNAKNTVYIQMNSLKPEDTAVYYCAAPSYRTRYYYWGQGTQVTVSS	high polyreactivity
QLQLHESGGGLVQAGGSLRLSCAASGTISYAGPMGWYRQAPGKEREFVAGIGVGSNTNYADSVKGRYTIIRDNAKNTVYLQMNSLKPEDTAVYYCAVGGYAPLGRPYWGQGTQVTVSS	low polyreactivity
QVQLVESGGGLVQAGGSLRLSCAASGSIFTHNAMGCYRQAPGKERELVAAMSSGGSTNDADSVKGRFTISRDNAKNTVYLKMNSLTPEDTAVYYCAKSIDGWYWRRRRYDYWGQGTQVTVSS	low polyreactivity
QVQLVESGGGLVQAGGSLRLSCAASGRTFYSYAMGWYRPAPGKERELVAAINSGGDTYYADSVKGRFTISRDNAKNTVYLQMNSLKPEDTAVYYCAADYYWEMDSWGQGTQVTVSS	low polyreactivity
QFQHVESGGGLVQAGGSLRLSCAASGSTFGLYAMGWYRQAPGKERELVADITWSGGSTYYADSVKGRFTISRDNAKNTVYLQMNSLKPEDTAVYYCAARYPWVYYDFDYWGLGTQVTVSS	low polyreactivity
QVQLVESGGGLVQAGGSLRLSCAASGFIFDQYAMGWYRQAPGKERELVATINWSGGRTYYADSVKGRFTISRDNAKNTVYLQMNSLKPEDTAVYYCAADTYRTKLHSFRTGSGYDYWGQGTQVTVSS	low polyreactivity
QVQLVESGGGLVQAGGSLRLSSAASGSTFGYYAMRWYRQAPGKARELVAAISSAGSTNDADSVKGRFTISRDNAKNTVYLQMNSLKPEDTAVYYCAAKVRVRWHTGLVTRDYDCGQGTQVTVSS	high polyreactivity
QVQLVESGGGLVQAGGRLRLSCAASGITFWNYAMGWYRQAPGKETELVAAITGGSTYYADSVKGRFTISRDYAKNTVYLQMNSLKPEDTAVYYCNADSLFEYWDYDYWGQGTQVTVSS	low polyreactivity
QVQLVESGGGLVQAGGSLRLSCAASGFIFLFNAMGWYRQAPGNESELVAAIYDDGSTYYADSVKGRFTLSLDNAKNTVYLHMNSVKPEDTAVYYCAAPRRGRWIRGYLGQGTQVTVSS	high polyreactivity
QVQLVESGGGLVQAGGSLRLSCAASGITFYLYAMGWYRQAPGKERELVAAISRIGGSTYYADSVKGRFTISRDNAKNTVYLQMNSLKPEDTAVYYCATYYGGSGYDYWGQGTQVTVSS	high polyreactivity
QVQLVESGGGLVQAGGSLRLSCAASGFTFWVYAMGWYRQAPGKEREFVASISWTGDTTYYADSVKGRFTISRDNAKNTVYLQMNSLKPEDTAVYYCAGDTILGYDYWGQGTQVTVSS	low polyreactivity
QVQLVESAGGLVQAGGSLRLSCAASGITFYEYVMGWYRQAPGKERELVASIDWSGGGTYYADSVKGRFTISRDNAKNTVYLQMNSLKPEDTAVYYCNADYFDYSRPRYDYWGQGTQVTVSS	low polyreactivity
QVQLVESGGGLVQAGGSLRLSCAASGFTFYNNAMGWYRQAPGKERELVAVITSNGGRTYYADSVKGRFTISRDNAKITVYLQMNSLKPEDTAVYYCAADYWGLGTQVTVSS	low polyreactivity
QVQLVETGGGLVQAGGSLRLSCAASGFTFEGYAMGWYRQAPGKERELVAAINGSGGSTYYADSVKGRFTISRDNAKNTVYLQMNSLKPEDTAVYYCAKTDAFYRGYGYWGQGTQVTVSS	low polyreactivity
QVQLVESGGGLVQAGGSLRLSCAASGRIFYYYALGWYRQAPGKERELVAAISSIDGTTYYADSVKGRFTISRDNAKNTVYLQMNSLKPEDTAVYYCAAEDPADQYDYWGQGTQVTVSS	high polyreactivity
QGQLEESGGGLVQAGGSLRLSCAASGSIFTLYAMGWYRQAPGKERELVAAITRSGGSTYYADSVKGRFTISRDNAKNTVYLQMNSLKPEDTAVYYCAADKAPYSTEGDYWGQGTQVTVSS	high polyreactivity
QVQLVESGGGLVQAGGSLRLSCAASGFTFYGYVMGWYRQAPGKERDLVAVISRSGDRTYYADSVKGRFTISRDNAKNTVYFQMNSLKPEDTAVYYCAARVYLLGWWTGNGYWGQGTQVTVSS	high polyreactivity
QLQLVESGGGLVQAGGSLRLSCAASGSTFWRYAMGWYRQAPGKERELVAAISWNGGSTYYADSVKGRFTISRDNAKNTVYLQMNSLKPEDTAVYYCAADYWFRYGTYEYWGQGTQGTVSS	high polyreactivity
QVQLVESGGGLVQAGGSLRLSCAASGSICSLYAKGWYRQEPGKERELVAAISSSGTSTYYADSVKGRFTISRDNSKNTVYLQMNSLKLEDTAVYYCNAYRRRATYNGDYWGQGTQLTVSS	high polyreactivity
QVQLVESGGGLVQAGGSLRLSCAASGRTFTKNAMGWYRQAPGKEREFVAAISKSTGSTYYADSVKGRFTISRDNAKNTVYLQMNSLKPEDTAVYYCNARYRFFIQARWGYIFGYWGQGTQVTVSS	high polyreactivity
QVQLVESGGGLVQAGGSLRLSCAASGFTFDRNAMGWYRQAPGKERGLVAAISSSGGRTYYADSVKGRFTISRDNAKNTVYLQMNSLKPEDTAVYYCAATSSYSYDYWGQGTQVTVSS	high polyreactivity
QVQLVESGGGLVQAGGSLRLSCAASGSIFDSYAMGWYRQAPGKERELVAGIRWDSGSTYYADSVKGRFTISRDNAKNTVYLQINSLKPEDTAVYYCAADLFDFLLIDGFAVVTYGYWGQGTQVTVSS	low polyreactivity

Sequence	polyreactivity (PSR sort gate)
QVQLVESGGGLVQAGGSLRLSCAASGRIFSTNAMGWYRQAPGKERELVARINSGGGSTYADSVKGRFTISRDNAKNTVYLQMNSLKPEDTAVYYCAASRRFQWRAYGYWGQGTQVTVSS	high polyreactivity
QVQHVESRGGLVQAGGSLRLSCAASGFTFYYNAMGWYRQAPVKERELVAIRFRGGNTYYADSVKGRFTISRDNAKNTVYLQMNSLKPEDTAVYYCNADDRGSTYVDFVYWGQGTQVTVSS	low polyreactivity
QVQLVESGGGLVQAGGSLRLSCAASGFIFSWYAMGWYRQAPGKERELVAAISKRGGSTYYADSVKGRFTISRDNAKNTVYLQMNSLKPEDTAVYYCAADRLPSGSLVEYWGQGTQVTVSS	high polyreactivity
QVQLGETGGGLVQAGGSLRLSCAATGSIFRYNAMGWYRQAPGKERELVAAISGRGTSTYYADSVKGRFTISRDNAKNTVYLQMNSLKPEDTAVYYCAAVYFSSFLVEYYYWGQGTQVTVSS	high polyreactivity
QVQLVESGGGLVQAGGSLRLSCAASGIISAHYAMGWYRQAPGKERELVAAISSSGGSTYYADSVKGRFTISRDNAKNTVYLQMNSLKPEDTAVYYCNAEFYWGYDYWGQGTQVTVSS	low polyreactivity
QVQLVESGGGLVQAGGSLRLSCAASGRIFTSYAKGWYRQAPGKERELVAAISRSGGSTYYADSVKGRFTISRDNAKNTVYLQMHSLKPEDTALYYCAKARVVAGYDYWGQGTQVTVSS	high polyreactivity
QVQLVESGGGLVQAGGSLRLSCAASGFTFGWYAMGWYRQAPGKERELVAAIRSDGSTYYADSVKGRFTISRDNAKNTVYLQMNSLKPEDTAVDYCAAVYYQRGWEFDYWGQGTQVTVSS	low polyreactivity
QVQLVESGGGLVQAGGSLRLSCAASGSIFSSYGMGWYRQAPGKERELVATITGSGGSTYYSDSVKGRLTISRVNAKNTVYLQMNSLKPEDTAVYYCATRLGWFVKYYTGRYYYWGQGTQVTVSS	high polyreactivity
QLQLVESGGGLVQAGGSLRLSCAASGRNFVHNAMGWYRPAPGKEREFVAAISLRGGSTYYADSVKGRFTTSRDNAKNSVYLQMNSLKPEDTAVYYCAAVPAHFYGYDYWGQGTQVTVSS	low polyreactivity
QVQLVESGGGLVQAGGSLRLSCAASGSIFGNNAMGWYRQAPGKERELVAAISGSGGTRYADSVKGRFTISRDNAKNTVYFQLNSLKPEDTAVYYCSADDSWGGFHSPKAIGYDYWGQGTQVTVSS	low polyreactivity
QVQLVESGGGLVQAGGSLRLSCAASGRIFRFYAMGWYRQAPRKERELVAAITSGGSTYYADSVKGRFTISRDNAKNTVYLQMNSLKPEDTAVYYCANYYWGQGTQVTVSS	low polyreactivity
QVQLVESGGGLVQAGGSLRLSCAASGFTFRYYAMGWYRQAPGKERELVAAITWSGGRTYYADSVKGRFTISRDNAKNTVYLQMNSLKPEDTAVYYCNTPSLWSGEDYWGQGTQVTVSS	high polyreactivity
QVQLVESGGGLVQAGGSLRLSSAASGITLTANAMGCYRQAPGKERELVAAISRGGSTYYADSVKGRFTISRDNAKNTVYLQMNSLKPEDTAVYYCNKAGGYWYAKRDYDYWGQCTQVTVSS	high polyreactivity
QVQLVESGGGLVQAGGSLRLSCAASGSIFVINAMGWYRQAPGKERELVAAISYSGTGTYYADSVKGRFTISRDNAKNTVYLQMNSLKPEDTAVYYCAADYYYRYRIYDYWGQGTQVTVSS	low polyreactivity
QVQLVESGGGLVQAGGSLRLSCAASGIIFRVYAMGWYRQAPGKERELFATITWSGGSTFYADSLKGRFTISRDNAKNTVYLQLNSLKPEDTAVYYCAKRGYVRSGLGRPYADDYWGQCTQVTVSS	low polyreactivity
QVQLVESGGGLVQAGGSLRLSCAASGFTYGVYAMGWYRPAPGKERELVAAISRRGTSTYYADSVKGRFTISRDNAKNTVYLQMNSLKPEDTAVYFCNARRYQVTVDHWGQGTQVTVSS	high polyreactivity
QVQLVESGGGLVQAGGSLRLSCAASGLIFRQYAMGWYRPAPGKERELVAAITQTGGRTYYADSVKGRFTISRDNAKNTVYLQMNSLKPEDTAVYYCNALTFAAGDHYDYWGQGTQVTVSS	low polyreactivity
QVQRVESGGGLVQAGGSLRLSCAASGYTSQVKDMGWYRQAPGKERELVAAISSTGDRTYYADSVKGRFTISRDNAKNTVYLQMNSLKPEDTAVYYCNADLTSYYEEDERNDDDYWGQGTQVTVSS	low polyreactivity
QVQLVESGGGLVQAGGSLRLSCAASGSIAMGWYRQAPGKERELVATISSSGGSTYYADSVKGRFTISRDNAKNTVYLQMNSLKPEDTAVYYCNTPQYLGPLYSEFDYWGQGTQVTVSS	low polyreactivity
QVQLVESAGGLVQAGGSLSLSCAATGSILQEYAMGSYRQAPGTERELVAAITRRGGNTYYADSVKGRFTISRDNAKNTVYLQMNSLKPEDTAVYYCAAPHGKYSWQYEYWGQGTQVTVSS	low polyreactivity
QVQLVESGGGLVQAGGSLRLSCAASGITFRGYAMGWYRQAPGTERELVAAITGSGTSTYADSVKGRFTISRDNAKNTVYLQMNILKPEDTAVYYCAADTYDPFYYGYGYWGQGTQVTVSS	low polyreactivity

— the nanobody polyreactivity screen of Harvey et al. (2022)
